Experiments:
Experiment in all cases: holdup assay
Set-up in all cases: key: below the threshold = too weak to quantify, mostly under pKd 3.1 to 4
NHERF3_1, Q5T2W1 = biological target: T1, NHERF3_1, Q5T2W1
T1 sequence (Q5T2W1 4-100, limits assumed, looked up): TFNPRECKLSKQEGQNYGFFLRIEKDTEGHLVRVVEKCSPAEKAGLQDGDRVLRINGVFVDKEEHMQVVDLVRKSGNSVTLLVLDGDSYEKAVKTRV

MAGI2_4, Q86UL8 = biological target: MAGI2_4, Q86UL8
LDB3, O75112 = biological target: LDB3, O75112
Inadl_8, Q8NI35 = biological target: Inadl_8, Q8NI35
GRIP2_3, Q9C0E4 = biological target: GRIP2_3, Q9C0E4
ARHGEF11, O15085 = biological target: T2, ARHGEF11, O15085
T2 sequence (O15085 42-136, limits assumed, looked up): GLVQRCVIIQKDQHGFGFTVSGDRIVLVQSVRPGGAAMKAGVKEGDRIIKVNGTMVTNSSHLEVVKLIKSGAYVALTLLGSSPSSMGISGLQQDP

APBA2_1, Q99767 = biological target: T3, APBA2_1, Q99767
T3 sequence (Q99767 563-664, limits assumed, looked up): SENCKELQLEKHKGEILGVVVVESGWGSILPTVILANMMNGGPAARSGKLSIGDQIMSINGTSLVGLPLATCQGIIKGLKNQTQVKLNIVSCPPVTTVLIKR

PTPN3, P26045 = biological target: PTPN3, P26045
GRASP, Q7Z6J2 = biological target: GRASP, Q7Z6J2
SHANK1, Q9Y566 = biological target: T4, SHANK1, Q9Y566
T4 sequence (Q9Y566 658-767, limits assumed, looked up): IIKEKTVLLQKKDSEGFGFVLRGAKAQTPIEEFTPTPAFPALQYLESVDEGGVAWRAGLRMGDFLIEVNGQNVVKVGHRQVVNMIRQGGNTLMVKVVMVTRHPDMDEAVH

HTRA4, P83105 = biological target: T5, HTRA4, P83105
T5 sequence (P83105 378-476, limits assumed, looked up): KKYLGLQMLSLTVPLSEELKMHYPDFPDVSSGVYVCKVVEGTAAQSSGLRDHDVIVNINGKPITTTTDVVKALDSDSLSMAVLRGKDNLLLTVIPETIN

CASK, O14936 = biological target: CASK, O14936
GRIP1_5, Q9Y3R0 = biological target: T6, GRIP1_5, Q9Y3R0
T6 sequence (Q9Y3R0 568-668, limits assumed, looked up): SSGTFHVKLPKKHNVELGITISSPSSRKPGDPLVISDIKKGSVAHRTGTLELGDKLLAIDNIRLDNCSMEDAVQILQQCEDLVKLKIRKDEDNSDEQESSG

Inadl_5, Q8NI35 = biological target: Inadl_5, Q8NI35
GRID2IP_1, A4D2P6 = biological target: GRID2IP_1, A4D2P6
MPDZ_10, O75970 = biological target: T7, MPDZ_10, O75970
T7 sequence (O75970 1624-1722, limits assumed, looked up): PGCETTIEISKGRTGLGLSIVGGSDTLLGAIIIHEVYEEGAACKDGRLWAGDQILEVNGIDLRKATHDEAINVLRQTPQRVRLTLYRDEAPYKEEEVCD

PCLO, Q9Y6V0 = biological target: T8, PCLO, Q9Y6V0
T8 sequence (Q9Y6V0 4491-4600, limits assumed, looked up): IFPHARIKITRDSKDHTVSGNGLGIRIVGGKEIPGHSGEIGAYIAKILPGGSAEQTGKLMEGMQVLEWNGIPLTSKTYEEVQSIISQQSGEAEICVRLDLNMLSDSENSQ

LNX2_2, Q8N448 = biological target: T9, LNX2_2, Q8N448
T9 sequence (Q8N448 334-432, limits assumed, looked up): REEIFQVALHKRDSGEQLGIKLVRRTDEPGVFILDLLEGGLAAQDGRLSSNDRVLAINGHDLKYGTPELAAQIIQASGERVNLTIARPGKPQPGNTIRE

CARD11, Q9BXL7 = biological target: T10, CARD11, Q9BXL7
T10 sequence (Q9BXL7 662-765, limits assumed, looked up): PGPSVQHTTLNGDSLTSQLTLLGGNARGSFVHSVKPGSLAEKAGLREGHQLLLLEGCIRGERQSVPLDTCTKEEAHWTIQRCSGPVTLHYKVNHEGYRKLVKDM

LRRC7, Q96NW7 = biological target: T11, LRRC7, Q96NW7
T11 sequence (Q96NW7 1440-1537, limits assumed, looked up): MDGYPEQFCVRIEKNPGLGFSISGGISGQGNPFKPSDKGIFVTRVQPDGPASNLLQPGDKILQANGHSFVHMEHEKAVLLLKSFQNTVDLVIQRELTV

GRIP1_2, Q9Y3R0 = biological target: T12, GRIP1_2, Q9Y3R0
T12 sequence (Q9Y3R0 145-248, limits assumed, looked up): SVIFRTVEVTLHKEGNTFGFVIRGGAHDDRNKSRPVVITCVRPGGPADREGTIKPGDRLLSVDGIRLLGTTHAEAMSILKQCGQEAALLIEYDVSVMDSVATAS

GRID2IP_2, A4D2P6 = biological target: GRID2IP_2, A4D2P6
MAGI1_2, Q96QZ7 = biological target: MAGI1_2, Q96QZ7
NHERF4_2, Q86UT5 = biological target: NHERF4_2, Q86UT5
ARHGEF12, Q9NZN5-2 = biological target: ARHGEF12, Q9NZN5-2
[1] = plain residues with an end cap or a label only (N-terminal biotin on a linker: ttds)
[2] = plain residues with an end cap or a label only (N-terminal biotin on a linker: gsgsgs; C-terminal amide)

Chain of NHERF4_2, Q86UT5 (Q86UT5 220-308): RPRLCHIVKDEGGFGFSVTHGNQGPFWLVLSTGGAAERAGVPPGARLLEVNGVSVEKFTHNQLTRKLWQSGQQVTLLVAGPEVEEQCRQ
Chain of GRASP, Q7Z6J2 (Q7Z6J2 96-193): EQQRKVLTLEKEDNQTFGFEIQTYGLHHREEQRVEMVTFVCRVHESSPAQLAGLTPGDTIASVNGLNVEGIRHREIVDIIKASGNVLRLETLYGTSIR
Chain of MAGI2_4, Q86UL8 (Q86UL8 772-865): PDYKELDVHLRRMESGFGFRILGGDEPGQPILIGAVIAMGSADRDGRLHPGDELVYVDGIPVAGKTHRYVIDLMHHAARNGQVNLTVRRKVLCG
Chain of LDB3, O75112 (O75112 1-94): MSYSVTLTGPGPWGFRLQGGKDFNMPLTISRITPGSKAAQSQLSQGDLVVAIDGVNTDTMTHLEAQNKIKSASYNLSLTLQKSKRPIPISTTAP
Chain of GRID2IP_2, A4D2P6 (A4D2P6 272-370): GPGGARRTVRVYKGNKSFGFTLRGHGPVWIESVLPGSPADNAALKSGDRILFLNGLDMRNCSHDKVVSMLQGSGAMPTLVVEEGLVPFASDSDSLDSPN
Chain of ARHGEF12, Q9NZN5-2 (Q9NZN5 other isoform, or with tags, fused parts or gaps): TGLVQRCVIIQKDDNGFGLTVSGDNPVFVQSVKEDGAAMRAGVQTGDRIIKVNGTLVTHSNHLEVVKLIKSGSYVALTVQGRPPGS
Chain of Inadl_8, Q8NI35 (Q8NI35 1425-1530): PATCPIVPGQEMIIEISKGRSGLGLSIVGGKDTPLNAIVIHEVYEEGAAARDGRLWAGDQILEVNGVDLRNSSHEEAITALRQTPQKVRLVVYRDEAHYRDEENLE
Chain of Inadl_5, Q8NI35 (Q8NI35 673-780): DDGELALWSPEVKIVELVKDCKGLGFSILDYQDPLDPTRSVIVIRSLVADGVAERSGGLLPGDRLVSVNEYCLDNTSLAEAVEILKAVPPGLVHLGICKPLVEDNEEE
Chain of MAGI1_2, Q96QZ7 (Q96QZ7 456-580): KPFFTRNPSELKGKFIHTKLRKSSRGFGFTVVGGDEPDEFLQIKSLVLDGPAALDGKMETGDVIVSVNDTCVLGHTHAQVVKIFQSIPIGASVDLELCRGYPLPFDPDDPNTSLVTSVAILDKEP
Chain of GRIP2_3, Q9C0E4 (Q9C0E4 238-339): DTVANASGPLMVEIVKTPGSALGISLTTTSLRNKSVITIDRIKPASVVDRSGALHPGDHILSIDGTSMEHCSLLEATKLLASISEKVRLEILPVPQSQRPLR
Chain of CASK, O14936 (O14936 487-570): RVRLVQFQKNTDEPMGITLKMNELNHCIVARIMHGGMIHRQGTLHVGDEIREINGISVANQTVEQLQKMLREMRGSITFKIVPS
Chain of PTPN3, P26045 (P26045 505-587): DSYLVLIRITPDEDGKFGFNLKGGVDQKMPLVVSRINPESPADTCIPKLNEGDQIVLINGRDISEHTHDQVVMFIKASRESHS
Chain of GRID2IP_1, A4D2P6 (A4D2P6 1-87): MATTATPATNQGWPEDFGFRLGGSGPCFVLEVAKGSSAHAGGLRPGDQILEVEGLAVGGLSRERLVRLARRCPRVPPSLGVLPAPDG

B1: DLGAP4, Q9Y2H0 (peptide)
chain: IYVPEAQTRL
- pKd (NHERF3_1, Q5T2W1; [1]): 5.25
- pKd (MAGI2_4, Q86UL8; [1]): below the threshold
- pKd (LDB3, O75112; [1]): below the threshold
- pKd (Inadl_8, Q8NI35; [1]): below the threshold
- pKd (GRIP2_3, Q9C0E4; [1]): below the threshold
- pKd (ARHGEF11, O15085; [1]): 3.7
- pKd (APBA2_1, Q99767; [1]): below the threshold
- pKd (PTPN3, P26045; [1]): 4.38
- pKd (GRASP, Q7Z6J2; [1]): 4.2
- pKd (SHANK1, Q9Y566; [1]): 5.54
- pKd (HTRA4, P83105; [1]): below the threshold
- pKd (CASK, O14936; [1]): below the threshold
- pKd (GRIP1_5, Q9Y3R0; [1]): below the threshold
- pKd (Inadl_5, Q8NI35; [1]): below the threshold
- pKd (GRID2IP_1, A4D2P6; [1]): below the threshold
- pKd (MPDZ_10, O75970; [1]): below the threshold
- pKd (PCLO, Q9Y6V0; [1]): below the threshold
- pKd (LNX2_2, Q8N448; [1]): below the threshold
- pKd (CARD11, Q9BXL7; [1]): below the threshold
- pKd (LRRC7, Q96NW7; [1]): below the threshold
- pKd (GRIP1_2, Q9Y3R0; [1]): below the threshold
- pKd (GRID2IP_2, A4D2P6; [1]): 4.08
- pKd (MAGI1_2, Q96QZ7; [1]): below the threshold
- pKd (NHERF4_2, Q86UT5; [1]): below the threshold
- pKd (ARHGEF12, Q9NZN5-2; [1]): 4.1

B2: KIR3DL3, Q8N743 (peptide)
chain: PKTPPTDTSV
- pKd (NHERF3_1, Q5T2W1; [1]): below the threshold
- pKd (MAGI2_4, Q86UL8; [1]): below the threshold
- pKd (LDB3, O75112; [1]): below the threshold
- pKd (Inadl_8, Q8NI35; [1]): below the threshold
- pKd (GRIP2_3, Q9C0E4; [1]): below the threshold
- pKd (ARHGEF11, O15085; [1]): below the threshold
- pKd (APBA2_1, Q99767; [1]): below the threshold
- pKd (PTPN3, P26045; [1]): 4.48
- pKd (GRASP, Q7Z6J2; [1]): below the threshold
- pKd (SHANK1, Q9Y566; [1]): below the threshold
- pKd (HTRA4, P83105; [1]): below the threshold
- pKd (CASK, O14936; [1]): below the threshold
- pKd (GRIP1_5, Q9Y3R0; [1]): below the threshold
- pKd (Inadl_5, Q8NI35; [1]): below the threshold
- pKd (GRID2IP_1, A4D2P6; [1]): below the threshold
- pKd (MPDZ_10, O75970; [1]): below the threshold
- pKd (PCLO, Q9Y6V0; [1]): below the threshold
- pKd (LNX2_2, Q8N448; [1]): below the threshold
- pKd (CARD11, Q9BXL7; [1]): below the threshold
- pKd (LRRC7, Q96NW7; [1]): below the threshold
- pKd (GRIP1_2, Q9Y3R0; [1]): below the threshold
- pKd (GRID2IP_2, A4D2P6; [1]): below the threshold
- pKd (MAGI1_2, Q96QZ7; [1]): below the threshold
- pKd (NHERF4_2, Q86UT5; [1]): below the threshold
- pKd (ARHGEF12, Q9NZN5-2; [1]): below the threshold

B3: HPV16-E6, P03126 (peptide)
chain: SSRTRRETQL
- pKd (NHERF3_1, Q5T2W1; [1]): 5.62
- pKd (MAGI2_4, Q86UL8; [1]): 3.89
- pKd (LDB3, O75112; [1]): below the threshold
- pKd (Inadl_8, Q8NI35; [1]): below the threshold
- pKd (GRIP2_3, Q9C0E4; [1]): below the threshold
- pKd (ARHGEF11, O15085; [1]): 4.15
- pKd (APBA2_1, Q99767; [1]): below the threshold
- pKd (PTPN3, P26045; [1]): 5.06
- pKd (GRASP, Q7Z6J2; [1]): below the threshold
- pKd (SHANK1, Q9Y566; [1]): 3.68
- pKd (HTRA4, P83105; [1]): below the threshold
- pKd (CASK, O14936; [1]): below the threshold
- pKd (GRIP1_5, Q9Y3R0; [1]): below the threshold
- pKd (Inadl_5, Q8NI35; [1]): below the threshold
- pKd (GRID2IP_1, A4D2P6; [1]): below the threshold
- pKd (MPDZ_10, O75970; [1]): 3.68
- pKd (PCLO, Q9Y6V0; [1]): below the threshold
- pKd (LNX2_2, Q8N448; [1]): below the threshold
- pKd (CARD11, Q9BXL7; [1]): below the threshold
- pKd (LRRC7, Q96NW7; [1]): 3.9
- pKd (GRIP1_2, Q9Y3R0; [1]): below the threshold
- pKd (GRID2IP_2, A4D2P6; [1]): 3.86
- pKd (MAGI1_2, Q96QZ7; [1]): 5.91
- pKd (NHERF4_2, Q86UT5; [1]): below the threshold
- pKd (ARHGEF12, Q9NZN5-2; [1]): 4.92

B4: SLC1A5, Q15758 (peptide)
chain: TVASEKESVM
- pKd (NHERF3_1, Q5T2W1; [1]): 4.42
- pKd (MAGI2_4, Q86UL8; [1]): below the threshold
- pKd (LDB3, O75112; [1]): below the threshold
- pKd (Inadl_8, Q8NI35; [1]): below the threshold
- pKd (GRIP2_3, Q9C0E4; [1]): below the threshold
- pKd (ARHGEF11, O15085; [1]): 3.56
- pKd (APBA2_1, Q99767; [1]): below the threshold
- pKd (PTPN3, P26045; [1]): 4.94
- pKd (GRASP, Q7Z6J2; [1]): below the threshold
- pKd (SHANK1, Q9Y566; [1]): below the threshold
- pKd (HTRA4, P83105; [1]): below the threshold
- pKd (CASK, O14936; [1]): below the threshold
- pKd (GRIP1_5, Q9Y3R0; [1]): 3.55
- pKd (Inadl_5, Q8NI35; [1]): below the threshold
- pKd (GRID2IP_1, A4D2P6; [1]): below the threshold
- pKd (MPDZ_10, O75970; [1]): below the threshold
- pKd (PCLO, Q9Y6V0; [1]): below the threshold
- pKd (LNX2_2, Q8N448; [1]): below the threshold
- pKd (CARD11, Q9BXL7; [1]): below the threshold
- pKd (LRRC7, Q96NW7; [1]): below the threshold
- pKd (GRIP1_2, Q9Y3R0; [1]): below the threshold
- pKd (GRID2IP_2, A4D2P6; [1]): 3.7
- pKd (MAGI1_2, Q96QZ7; [1]): below the threshold
- pKd (NHERF4_2, Q86UT5; [1]): below the threshold
- pKd (ARHGEF12, Q9NZN5-2; [1]): 3.65

B5: AXIN1_int, O15169 (peptide)
chain: TLSLTDSSVDGIPPYR
- pKd (NHERF3_1, Q5T2W1; [2]): below the threshold
- pKd (MAGI2_4, Q86UL8; [2]): below the threshold
- pKd (LDB3, O75112; [2]): below the threshold
- pKd (Inadl_8, Q8NI35; [2]): below the threshold
- pKd (GRIP2_3, Q9C0E4; [2]): below the threshold
- pKd (ARHGEF11, O15085; [2]): below the threshold
- pKd (APBA2_1, Q99767; [2]): below the threshold
- pKd (PTPN3, P26045; [2]): 3.83
- pKd (GRASP, Q7Z6J2; [2]): below the threshold
- pKd (SHANK1, Q9Y566; [2]): below the threshold
- pKd (HTRA4, P83105; [2]): below the threshold
- pKd (CASK, O14936; [2]): below the threshold
- pKd (GRIP1_5, Q9Y3R0; [2]): below the threshold
- pKd (Inadl_5, Q8NI35; [2]): below the threshold
- pKd (GRID2IP_1, A4D2P6; [2]): below the threshold
- pKd (MPDZ_10, O75970; [2]): below the threshold
- pKd (PCLO, Q9Y6V0; [2]): below the threshold
- pKd (LNX2_2, Q8N448; [2]): below the threshold
- pKd (CARD11, Q9BXL7; [2]): below the threshold
- pKd (LRRC7, Q96NW7; [2]): below the threshold
- pKd (GRIP1_2, Q9Y3R0; [2]): below the threshold
- pKd (GRID2IP_2, A4D2P6; [2]): below the threshold
- pKd (MAGI1_2, Q96QZ7; [2]): below the threshold
- pKd (NHERF4_2, Q86UT5; [2]): below the threshold
- pKd (ARHGEF12, Q9NZN5-2; [2]): below the threshold
